Experimental data taken from patent US12522842B2, “Glutamine synthetase mutant having glufosinate resistance and application thereof and cultivation method therefor” (GEVOTO LLC, priority 2019, dated 2026).

B1: TaGS_WT: wild-type wheat glutamine synthetase, SEQ ID NO. 2, control (protein, listed as Triticum aestivum)
chain: MALLTDLLNLDLTDSTEKIIAEYIWIGGSGMDLRSKARTLPGPVTDPSKLPKWNYDGSSTGQAPGEDSEVILYPQAIFKDPFRKGNNILVMCDCYTPAGVPIPTNKRYNAAKIFSNPDVAKEEPWYGIEQEYTLLQKDINWPLGWPVGGFPGPQGPYYCSIGADKSFGRDIVDSHYKACLFAGVNISGINGEVMPGQWEFQVGPTVGISAGDQVWVARYLLERITEIAGVVVTFDPKPIPGDWNGAGAHTNYSTESMRKDGGFKVIVDAVEKLKLKHKEHIAAYGEGNERRLTGKHETADINTFSWGVANRGASVRVGRETEQNGKGYFEDRRPASNMDPYVVTSMIAETTILWKP
B2: OR: rice GS mutant, H296R versus SEQ ID NO. 1 (SEQ ID NO. 32) (protein)
chain: MASLTDLVNLNLSDTTEKIIAEYIWIGGSGMDLRSKARTLSGPVTDPSKLPKWNYDGSSTGQAPGEDSEVILYPQAIFKDPFRKGNNILVMCDCYTPAGEPIPTNKRHNAAKIFSSPEVASEEPWYGIEQEYTLLQKDINWPLGWPVGGFPGPQGPYYCGIGADKSFGRDIVDSHYKACLYAGINISGINGEVMPGQWEFQVGPSVGISAGDQVWVARYILERITEIAGVVVSFDPKPIPGDWNGAGAHTNYSTKSMRNDGGYEIIKSAIEKLKLRHKEHISAYGEGNERRLTGRRETADINTFSWGVANRGASVRVGRETEQNGKGYFEDRRPASNMDPYIVTSMIAETTIIWKP
modifications: OR

What was measured:
[1] = target: wheat GS (glutamine synthetase); assay: Enzymatic activity of purified wheat GS: kinetic parameters and glufosinate IC50; format: biochemical, wheat (Triticum aestivum); settings: inhibition of wheat GS by glufosinate; read-out: glufosinate resistance parameter IC50
Excerpt: (§1) OsC, OsF, OsG, OsH, OsP, and OsY provided in Example 1, OR provided in Example 3, and rice GS mutant OsGR and wheat GS mutant TaGR provided in Example 2 were detected for their enzymatic kinetic parameter, and enzymatic kinetic parameter in the presence of glufosinate, using wild-type rice GS OsGS_WT and wild-type wheat GS TaGS_WT as controls according to the following method.
(§2) The nucleic acid sequences encoding the above mutants were each cloned into a prokaryotic expression vector pET32a, and the clone was verified by sequencing.
(§3) The mutant enzyme protein was purified with 6His by a standard method, and its concentration was determined with a protein concentration assay kit with Bradford method. The protein was stored in a protein storage solution.
(§4) ELIASA (Detielab, HBS-1096A), glufosinate, substrate sodium L-glutamate (CAS: 6106-04-3).
(1) The composition of a reaction solution for determination of enzymatic activity of glutamine synthetase were as follows: 100 mM Tris-HCl (pH 7.5), 10 mM ATP, 20 mM sodium L-glutamate, 30 mM hydroxylamine, 20 mM MgCl2. 100 μl of the reaction solution after mixed thoroughly was preheated at 35° C. for 5 min, and 10 μl of mutant protein solution (protein concentration of 200 μg/ml) was added to start the reaction. […] The absorbance at 540 nm was measured.

[2] = tested on: glutamine synthetase-deficient Escherichia coli; assay: Growth of glutamine synthetase-deficient E. coli transformed with GS mutants in M9 medium containing glufosinate; format: cell-based; settings: for growth of transformed GS-deficient E. coli (normal GS enzymatic activity): medium containing 0 mM glufosinate
Excerpt: According to the sequences of the nucleic acid molecules provided in Example 4, the nucleic acid sequences encoding rice GS mutants OsA, OsC, OsD, OsE, OsF, OsG, OsH, OsI, OsK, OsP, OST, OsV, and OsY were synthesized using chemical synthesis method. Restriction digestion sites (Pac1 and Sbf1) were introduced at both ends thereof, and after restriction digestion, they were linked under the action of ligase to an expression vector (such as pADV7 vector, whose structure is shown in FIG. 4) that was subjected to the same restriction digestion treatment. Then, glutamine synthetase-deficient Escherichia coli was transformed with the resultant. After verification, positive clones were picked up and inoculated in M9 medium containing different concentrations of glufosinate to grow, and the growth status of defective Escherichia coli was observed.
With wild-type rice GS (its amino acid sequence shown in SEQ ID NO. 1 and its encoding gene shown in SEQ ID NO. 4) as a negative control, the glufosinate resistance for the GS mutant OsA (S59A, wherein the amino acid S at site 59 of the rice GS is mutated into A), OsC (S59C), OsD (S59D), OsE (S59E), OsF (S59F), OsG (S59G), OsH (S59H), OsI (S591), OsK (S59K), OsP (S59P), OsT (S59T), OsV (S59V), OsY (S59Y) was detected.
With reference to the detection method of Experimental Example 1, glufosinate resistance of the rice GS mutant OsGR (S59G and H296R, the amino acid S at site 59 of rice GS is mutated into G and the amino acid H at site 296 is mutated into R), the wheat GS mutant TaGR (S59G and H296R, the amino acid S at site 59 of wheat GS is mutated into G and the amino acid H at site 296 is mutated into R), the soybean GS mutant GmGR (S59G and H296R, the amino acid S at site 59 of soybean GS is mutated into G and the amino acid H at site 296 is mutated into R) provided in Example 2 was verified.
With reference to Experimental example 1, the glufosinate resistance of rice GS mutants OA, OD, OE, OG, OI, OK, OM, OP, OQ, OR, OS, OT, and OV provided in Example 3 was detected according to the following method.
With wild-type rice GS as a negative control, the glufosinate resistance of GS mutants OA (H296A, amino acid H at site 296 of rice GS is mutated into A), OD (H296D), OE (H296E), OG (H296G), OI (H2961), OK (H296K), OM (H296M), OP (H296P), OQ (H296Q), OR (H296R), OS (H296S), OT (H296T), OV (H296V) was detected.

[3] = target: rice GS (glutamine synthetase); assay: Enzymatic activity of purified rice GS: kinetic parameters and glufosinate IC50; format: biochemical, rice (Oryza sativa); settings: inhibition of rice GS by glufosinate
Excerpt: as §1, §2, §3, §4
(1) The composition of a reaction solution for determination of enzymatic activity of glutamine synthetase were as follows: 100 mM Tris-HCl (pH 7.5), 10 mM ATP, 20 mM sodium L-glutamate, 30 mM hydroxylamine, 20 mM MgCl2. 100 μl of the reaction solution after mixed thoroughly was preheated at 35° C. for 5 min, and 10 μl of mutant protein solution (protein concentration of 200 μg/ml) was added to start the reaction. After reaction at 35° C. for 30 min, 110 μl of color developing solution (55 g/L FeCl3·6H2O, 20 g/L trichloroacetic acid, 2.1% concentrated hydrochloric acid) was added to terminate the reaction. The absorbance at 540 nm was measured.

rice (Nipponbare) = assay: Glufosinate resistance of transgenic rice after spraying 1x field dose; format: in vivo; settings: 1x glufosinate, 450 g/ha, day 7 after spraying
Excerpt: The glufosinate resistance resulting from the OR mutants provided in Example 3 in transgenic rice was detected according to the following method.
The nucleic acid sequence encoding OR was inserted into the pGVP1 vector (see FIG. 11) according to a conventional method to obtain the pGVP1-OR vector.
The pGVP1-OR vector was transformed into competent cells of EHA105 (Agrobacterium tumefaciens), the monoclonal was picked up for colony PCR detection, and positive strains were obtained; then the positive strains were inoculated into 1 mL YEP medium containing 50 μg·mL^−1 kanamycin and 50 μg·mL^−1 rifampicin for propagation, and stored at −80° C. or used in subsequent experiments. […]
Rice plants transformed with OR mutant gene were detected using the PCR method, forward and reverse detection primers were designed according to pGVP1-OR vector sequence and rice reference gene, the PCR amplification products were assayed by 1.5% agarose gel electrophoresis, and those with bands at 452 bp and 629 bp were transgenic plants.
The transplanted transgenic rice seedlings were evenly arranged in the same experimental area (to avoid overlapping leaves). The area of occupied regions of the experimental group and the control group was calculated. […]

Molecule	IC50 [1]	growth of transformed E. coli (glufosinate resistance) ([2]; media containing 2 mM, 5 mM, 10 mM, and 20 mM glufosinate)	growth of transformed GS-deficient E. coli (normal GS enzymatic activity) [2]	glufosinate resistance parameter IC50 [3]	performance of transgenic rice seedlings after spraying glufosinate (rice (Nipponbare))	growth of transformed E. coli (glufosinate resistance) ([2]; medium containing 10 mM glufosinate)	growth of transformed E. coli (glufosinate resistance) ([2]; medium containing 20 mM glufosinate)	growth of transformed E. coli (glufosinate resistance) ([2]; medium containing 50 mM glufosinate)
B1	600 µM	could hardly grow	could normally grow	–	–	–	–	–
B2	–	–	could normally grow	much higher than those of the wild-type controls	not significantly affected by glufosinate and continued to grow	significantly superior to that of the wild type	significantly grew	still significantly grew
